± gives the uncertainty stated by the source.
B1: Homeobox protein SIX3, residues 212 to 262; numbered along this chain, O95343 (parent)
chain: CFKERTRSLLREWYLQDPYPNPSKKRELAQATGLTPTQVGNWFKNRRQRDR

Variants of: B1
Assay: abundance fitness (aPCA) (normalised: wild type 0, dead -1); higher = more abundant; growth selection in yeast, the domain comes from the species named
Settings: Homo sapiens

Compared with CFKERTRSLLREWYLQDPYPNPSKKRELAQATGLTTTQVGNWFKNRRQRDR [P36T], CFKERTRSLLREWYLQDPYPNPSKKRELAQATGLTWTQVGNWFKNRRQRDR [P36W] is lower in abundance fitness: -0.066 ± 0.072 for the first, -0.536 ± 0.1 for the second.

CFKERTRSLLREWYLQDPYPNPSKKRELAQATGLTPAQVGNWFKNRRQRDR [T37A] and CFKERTRSLLREWYLQDPYPNPSKKRELAQATGLTPCQVGNWFKNRRQRDR [T37C] are within error of each other in abundance fitness: -0.11 ± 0.072 for the first, -0.051 ± 0.094 for the second.

Going from CFKERTRSLLREWYLQDPYPNPSKKRELAQATGLTPDQVGNWFKNRRQRDR [T37D] to CFKERTRSLLREWYLQDPYPNPSKKRELAQATGLTPEQVGNWFKNRRQRDR [T37E], the abundance fitness falls from 0.326 ± 0.081 to 0.164 ± 0.065.

Going from CFKERTRSLLREWYLQDPYPNPSKKRELAQATGLTPFQVGNWFKNRRQRDR [T37F] to CFKERTRSLLREWYLQDPYPNPSKKRELAQATGLTPGQVGNWFKNRRQRDR [T37G], the abundance fitness rises from -0.678 ± 0.19 to -0.126 ± 0.047.

CFKERTRSLLREWYLQDPYPNPSKKRELAQATGLTPHQVGNWFKNRRQRDR [T37H] and CFKERTRSLLREWYLQDPYPNPSKKRELAQATGLTPIQVGNWFKNRRQRDR [T37I] are within error of each other in abundance fitness: -0.099 ± 0.074 for the first, -0.184 ± 0.044 for the second.

Going from CFKERTRSLLREWYLQDPYPNPSKKRELAQATGLTPLQVGNWFKNRRQRDR [T37L] to CFKERTRSLLREWYLQDPYPNPSKKRELAQATGLTPMQVGNWFKNRRQRDR [T37M], the abundance fitness rises from -0.255 ± 0.045 to -0.055 ± 0.091.

CFKERTRSLLREWYLQDPYPNPSKKRELAQATGLTPNQVGNWFKNRRQRDR [T37N] and CFKERTRSLLREWYLQDPYPNPSKKRELAQATGLTPPQVGNWFKNRRQRDR [T37P] are within error of each other in abundance fitness: -0.27 ± 0.12 for the first, -0.416 ± 0.096 for the second.

First: CFKERTRSLLREWYLQDPYPNPSKKRELAQATGLTPQQVGNWFKNRRQRDR [T37Q]
Second: CFKERTRSLLREWYLQDPYPNPSKKRELAQATGLTPRQVGNWFKNRRQRDR [T37R]
The abundance fitness of the first is higher: 0.211 ± 0.078 for the first, 0.014 ± 0.058 for the second.

CFKERTRSLLREWYLQDPYPNPSKKRELAQATGLTPSQVGNWFKNRRQRDR [T37S] and CFKERTRSLLREWYLQDPYPNPSKKRELAQATGLTPVQVGNWFKNRRQRDR [T37V] are within error of each other in abundance fitness: -0.186 ± 0.068 for the first, -0.091 ± 0.075 for the second.

CFKERTRSLLREWYLQDPYPNPSKKRELAQATGLTPWQVGNWFKNRRQRDR [T37W] and CFKERTRSLLREWYLQDPYPNPSKKRELAQATGLTPTAVGNWFKNRRQRDR [Q38A] are within error of each other in abundance fitness: -0.441 ± 0.074 for the first, -0.338 ± 0.068 for the second.

Compared with CFKERTRSLLREWYLQDPYPNPSKKRELAQATGLTPTCVGNWFKNRRQRDR [Q38C], CFKERTRSLLREWYLQDPYPNPSKKRELAQATGLTPTDVGNWFKNRRQRDR [Q38D] is lower in abundance fitness: -0.393 ± 0.15 for the first, -0.937 ± 0.38 for the second.

CFKERTRSLLREWYLQDPYPNPSKKRELAQATGLTPTEVGNWFKNRRQRDR [Q38E] and CFKERTRSLLREWYLQDPYPNPSKKRELAQATGLTPTFVGNWFKNRRQRDR [Q38F] are within error of each other in abundance fitness: -0.606 ± 0.19 for the first, -0.663 ± 0.43 for the second.

CFKERTRSLLREWYLQDPYPNPSKKRELAQATGLTPTGVGNWFKNRRQRDR [Q38G] and CFKERTRSLLREWYLQDPYPNPSKKRELAQATGLTPTHVGNWFKNRRQRDR [Q38H] are within error of each other in abundance fitness: -0.761 ± 0.1 for the first, -0.81 ± 0.23 for the second.

CFKERTRSLLREWYLQDPYPNPSKKRELAQATGLTPTIVGNWFKNRRQRDR [Q38I] and CFKERTRSLLREWYLQDPYPNPSKKRELAQATGLTPTKVGNWFKNRRQRDR [Q38K] are within error of each other in abundance fitness: -0.733 ± 0.31 for the first, -0.886 ± 0.2 for the second.

CFKERTRSLLREWYLQDPYPNPSKKRELAQATGLTPTLVGNWFKNRRQRDR [Q38L] and CFKERTRSLLREWYLQDPYPNPSKKRELAQATGLTPTMVGNWFKNRRQRDR [Q38M] are within error of each other in abundance fitness: -0.64 ± 0.052 for the first, -0.619 ± 0.09 for the second.

CFKERTRSLLREWYLQDPYPNPSKKRELAQATGLTPTNVGNWFKNRRQRDR [Q38N] and CFKERTRSLLREWYLQDPYPNPSKKRELAQATGLTPTPVGNWFKNRRQRDR [Q38P] are within error of each other in abundance fitness: -0.728 ± 0.24 for the first, -1.13 ± 0.18 for the second.

CFKERTRSLLREWYLQDPYPNPSKKRELAQATGLTPTRVGNWFKNRRQRDR [Q38R] and CFKERTRSLLREWYLQDPYPNPSKKRELAQATGLTPTSVGNWFKNRRQRDR [Q38S] are within error of each other in abundance fitness: -0.802 ± 0.067 for the first, -0.676 ± 0.077 for the second.

CFKERTRSLLREWYLQDPYPNPSKKRELAQATGLTPTTVGNWFKNRRQRDR [Q38T] and CFKERTRSLLREWYLQDPYPNPSKKRELAQATGLTPTVVGNWFKNRRQRDR [Q38V] are within error of each other in abundance fitness: -0.43 ± 0.15 for the first, -0.418 ± 0.058 for the second.

CFKERTRSLLREWYLQDPYPNPSKKRELAQATGLTPTWVGNWFKNRRQRDR [Q38W] and CFKERTRSLLREWYLQDPYPNPSKKRELAQATGLTPTQAGNWFKNRRQRDR [V39A] are within error of each other in abundance fitness: -0.774 ± 0.081 for the first, -0.829 ± 0.088 for the second.

CFKERTRSLLREWYLQDPYPNPSKKRELAQATGLTPTQCGNWFKNRRQRDR [V39C] and CFKERTRSLLREWYLQDPYPNPSKKRELAQATGLTPTQDGNWFKNRRQRDR [V39D] are within error of each other in abundance fitness: -0.969 ± 0.37 for the first, -0.893 ± 0.074 for the second.

CFKERTRSLLREWYLQDPYPNPSKKRELAQATGLTPTQEGNWFKNRRQRDR [V39E] and CFKERTRSLLREWYLQDPYPNPSKKRELAQATGLTPTQFGNWFKNRRQRDR [V39F] are within error of each other in abundance fitness: -0.96 ± 0.099 for the first, -0.848 ± 0.25 for the second.

CFKERTRSLLREWYLQDPYPNPSKKRELAQATGLTPTQGGNWFKNRRQRDR [V39G] and CFKERTRSLLREWYLQDPYPNPSKKRELAQATGLTPTQHGNWFKNRRQRDR [V39H] are within error of each other in abundance fitness: -0.731 ± 0.083 for the first, -0.998 ± 0.32 for the second.

CFKERTRSLLREWYLQDPYPNPSKKRELAQATGLTPTQKGNWFKNRRQRDR [V39K] and CFKERTRSLLREWYLQDPYPNPSKKRELAQATGLTPTQLGNWFKNRRQRDR [V39L] are within error of each other in abundance fitness: -0.945 ± 0.19 for the first, -0.84 ± 0.08 for the second.

CFKERTRSLLREWYLQDPYPNPSKKRELAQATGLTPTQNGNWFKNRRQRDR [V39N] and CFKERTRSLLREWYLQDPYPNPSKKRELAQATGLTPTQPGNWFKNRRQRDR [V39P] are within error of each other in abundance fitness: -1.01 ± 0.24 for the first, -0.972 ± 0.12 for the second.

CFKERTRSLLREWYLQDPYPNPSKKRELAQATGLTPTQQGNWFKNRRQRDR [V39Q] and CFKERTRSLLREWYLQDPYPNPSKKRELAQATGLTPTQRGNWFKNRRQRDR [V39R] are within error of each other in abundance fitness: -0.78 ± 0.067 for the first, -0.873 ± 0.064 for the second.

For CFKERTRSLLREWYLQDPYPNPSKKRELAQATGLTPTQSGNWFKNRRQRDR [V39S], the abundance fitness was -0.916 ± 0.083.

From the Human Domainome abundance scans (Beltran et al. 2025)
